Measured values taken from US6391571.

Legend:
[1] = target: monobiotinylated Fab' antibody fragment; assay: BIAcore SPR, mutein immobilized on CM5 chip, Fab' at 12.5-400 nmol/l, 25 C
[2] = target: monobiotinylated Fab' antibody fragment; assay: BIAcore SPR, mutein immobilized on CM5 chip, Fab' at 12.5-400 nmol/l, 25 C; first of 2 product lots
[3] = target: monobiotinylated Fab' antibody fragment; assay: BIAcore SPR, mutein immobilized on CM5 chip, Fab' at 12.5-400 nmol/l, 25 C; second of 2 product lots
[4] = target: monobiotinylated Fab' antibody fragment; assay: BIAcore SPR, streptavidin immobilized on CM5 chip, Fab' at 12.5-400 nmol/l, 25 C
[5] = target: monobiotinylated Fab' antibody fragment; assay: BIAcore SPR, mutein-thermo-BSA conjugate immobilized on CM5 chip, Fab' at 12.5-400 nmol/l, 25 C

SA-Ser27Arg/Ser45Arg TBSA conjugate, sequence (P02769 25-607, change not shown): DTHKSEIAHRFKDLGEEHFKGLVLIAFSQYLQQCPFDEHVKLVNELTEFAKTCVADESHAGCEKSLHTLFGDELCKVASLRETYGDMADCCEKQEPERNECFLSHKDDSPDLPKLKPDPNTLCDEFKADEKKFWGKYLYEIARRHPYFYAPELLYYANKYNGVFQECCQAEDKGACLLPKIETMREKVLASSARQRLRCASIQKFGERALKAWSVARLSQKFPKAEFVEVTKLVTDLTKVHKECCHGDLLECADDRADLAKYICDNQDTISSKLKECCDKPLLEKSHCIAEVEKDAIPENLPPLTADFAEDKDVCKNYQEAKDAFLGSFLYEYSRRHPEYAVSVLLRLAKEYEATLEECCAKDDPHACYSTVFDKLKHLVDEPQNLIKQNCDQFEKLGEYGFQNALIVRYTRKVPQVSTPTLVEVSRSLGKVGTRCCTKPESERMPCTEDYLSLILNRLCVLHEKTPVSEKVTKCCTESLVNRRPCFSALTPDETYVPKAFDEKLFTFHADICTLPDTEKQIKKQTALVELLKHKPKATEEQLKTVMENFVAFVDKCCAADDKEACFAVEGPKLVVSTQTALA
core streptavidin (wild type streptavidin), sequence (chain): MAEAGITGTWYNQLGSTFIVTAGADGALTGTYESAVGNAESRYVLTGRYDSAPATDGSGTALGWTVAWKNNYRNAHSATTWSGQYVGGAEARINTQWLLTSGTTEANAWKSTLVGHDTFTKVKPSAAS

Row | Substance | Ka [1] | koff [1] | kon [1] | t/2 diss [1] | also measured
1 | SA-Ser45Trp/Leu110Trp | 6.1e+08 M⁻¹ | 0.00033 s⁻¹ | 140000 M⁻¹ s⁻¹ | 40.8 min | 
2 | SA-Ser45Tyr/Leu110Trp | 2.7e+08 M⁻¹ | 0.00054 s⁻¹ | 130000 M⁻¹ s⁻¹ | 22.6 min | 
3 | SA-Trp120Ala | 2.9e+08 M⁻¹ | 0.00023 s⁻¹ | 67000 M⁻¹ s⁻¹ | 49.4 min | 
4 | SA-Ser27Arg/Ser45Arg |  |  |  |  | Ka [2]: 4.2e+07 M⁻¹; kon [2]: 130000 M⁻¹ s⁻¹; t/2 diss [2]: 3.7 min; Ka [3]: 2.1e+07 M⁻¹; koff [3]: 0.0041 s⁻¹; kon [3]: 85000 M⁻¹ s⁻¹; t/2 diss [3]: 2.8 min
5 | core streptavidin (wild type streptavidin) |  |  |  |  | Ka [4]: > 1e+10 M⁻¹; koff [4]: < 1e-05 s⁻¹; kon [4]: 220000 M⁻¹ s⁻¹; t/2 diss [4]: > 20 h
6 | SA-Ser27Arg/Ser45Arg/Leu110Trp | 7.7e+06 M⁻¹ | 0.0059 s⁻¹ | 45000 M⁻¹ s⁻¹ | 2 min | 
7 | SA-Ser27Arg/Ser45Arg/Trp120Ala | 2e+07 M⁻¹ | 0.0052 s⁻¹ | 100000 M⁻¹ s⁻¹ | 2.2 min | 
8 | SA-Leu25Trp/Ser45Trp/Leu110Trp | 7e+07 M⁻¹ | 0.00087 s⁻¹ | 49000 M⁻¹ s⁻¹ | 13.4 min | 
9 | SA-Ser27Arg/Ser45Arg TBSA conjugate (from UniProt P02769 25-607) |  |  |  |  | Ka [5]: 3.3e+07 M⁻¹; koff [5]: 0.003 s⁻¹; kon [5]: 100000 M⁻¹ s⁻¹; t/2 diss [5]: 3.9 min
10 | SA-Leu25Trp/Ser45Tyr/Leu110Trp | 4.6e+07 M⁻¹ | 0.0013 s⁻¹ | 54000 M⁻¹ s⁻¹ | 8.7 min | 
11 | SA-Leu25Trp/Ser45Arg | 3.6e+08 M⁻¹ | 0.00022 s⁻¹ | 79000 M⁻¹ s⁻¹ | 51.8 min | 
